Assay results as given in patent US20230192897A1 (NUMAB THERAPEUTICS, published 2023).
One block for each binder: values may come before it.

Key:
[1] = target: T1, mouse CD137-Fc chimeric protein (mouse, UniProt P20334 24-187, limits assumed); assay: SPR
T1 sequence (looked up): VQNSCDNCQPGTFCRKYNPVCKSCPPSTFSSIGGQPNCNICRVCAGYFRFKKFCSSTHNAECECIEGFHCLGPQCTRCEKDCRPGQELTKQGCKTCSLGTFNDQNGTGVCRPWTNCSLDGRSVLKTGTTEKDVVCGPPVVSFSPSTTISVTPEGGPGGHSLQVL
Method in brief: (§1)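 Kinetics were fitted with a one-to-one Langmuir model to give apparent ka, kd and KD. Binders at 0.12-90 nM (three-fold series) flowed 3 min, with 10 min dissociation and 3 M MgCl₂ regeneration, on a Biacore T200.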

Fc tagged human CD137 = target: T2, Fc tagged human CD137 (human, UniProt Q07011 24-186); assay: SPR
T2 construct: also called CD137-Fc chimeric protein
Method in brief: as §1

Fc tagged human PDL1 = target: T3, Fc tagged human PDL1 (human, UniProt Q9NZQ7 19-239); assay: SPR
T3 construct: Bought (Sino Biological, cat. 10084-H02H); captured on the SPR chip; also called PDL1-Fc chimeric protein
Method in brief: as §1

human PDL1 on cells = human PDL1 on cells (human, UniProt Q9NZQ7 19-290); assay: cell-based or functional assay
human serum albumin = target: T4, human serum albumin (human, UniProt P02768 25-609); assay: SPR, SA coupled to chip, pH 5.5
T4 construct: Coupled directly to the CM5 chip; also called HSA; human SA
Description: Affinity of molecules to serum albumin (SA) of the different species was determined by SPR measurements using a Biacore T200 device (GE Healthcare). SA was directly coupled to a CM5 sensor chip (GE Healthcare) using amine coupling chemistry. […] The assay was run in a 1× PBS-Tween buffer at pH 5.5.

[2] = target: T5, CD137 on Jurkat NFkB reporter cells (human, UniProt Q07011 24-255); assay: cell-based or functional assay
[3] = target: T5, CD137 on Jurkat NFkB reporter cells; assay: cell-based or functional assay; remark: listed apart in the source
biotinylated human PDL1 [4] = target: T6, biotinylated human PDL1 (human, UniProt Q9NZQ7 19-238, limits assumed, biotinylated); assay: competition ELISA B7.1/PDL1
T6 construct: also called biotinylated PDL1
Description: Plates were blocked for 1 hour at room temperature by adding 300 μl of PBS with 1% BSA and 0.2% tween (dilution buffer) to each well. […] The mixtures were pre-incubated for 1 hour at room temperature under gentle agitation on a rotating mixer (21 rpm) and added to the microplates after 3 wash cycles with 450 μl wash buffer per well. Plates were incubated for 1.5 hours at room temperature under gentle agitation, then 10 ng/ml streptavidin-polyHRP40 was added to each microplate well after three washes with 450 μl of wash buffer per well. After 1 h incubation at RT, plates were washed three times with 450 μl wash buffer and TMB substrate solution was added. The enzymatic reaction was stopped after 6 minutes by addition of 1 M HCl and absorbance was measured at 450 nm using 690 nm as a reference wavelength. For calculation of IC₅₀ values, a four-parameter logistic (4PL) curve fit was performed in Graph Pad Prism using reference subtracted values.

biotinylated human PDL1 [5] = target: T6, biotinylated human PDL1; assay: competition ELISA PD-1/PDL1
Description: Plates were blocked for 1 hour at room temperature by adding 300 μl of PBS with i%BSA and 0.2% tween (dilution buffer) to each well. Inhibitors were serially diluted in 3-fold steps to final concentrations ranging from 300 to 0.005 ng/ml in dilution buffer containing 1 ng/ml biotinylated human PDL1. The mixtures were pre-incubated for 1 hour at room temperature under gentle agitation on a rotating mixer (21 rpm) and added to the microplates after 3 wash cycles with 450 μl wash buffer per well. Plates were incubated for 1.5 hours at room temperature under gentle agitation, then 10 ng/ml streptavidin-polyHRP40 was added to each microplate well after three washes with 450 μl of wash buffer per well. After 1 h incubation at RT, plates were washed three times with 450 μl wash buffer and TMB substrate solution was added. The enzymatic reaction was stopped after 6 minutes by addition of 1 M HCl and absorbance was measured at 450 nm using 690 nm as a reference wavelength. For calculation of IC₅₀ values, a four-parameter logistic (4PL) curve fit was performed in Graph Pad Prism using reference subtracted values.

Kd [1]: 510 nM
koff [1]: 0.27 s⁻¹
Kd (Fc tagged human CD137): 3.7 nM
kon (Fc tagged human CD137): 200000 M⁻¹ s⁻¹
Kd (Fc tagged human PDL1): 0.067 nM
koff (Fc tagged human PDL1): 0.00011 s⁻¹
kon (Fc tagged human PDL1): 1.7e+06 M⁻¹ s⁻¹
B1: PRO1125 (bispecific antibody)
chain: DIQMTQSPSSLSASVGDRVTITCQASQSINDYLAWYQQKPGKSPKLLIYKASTLASGVPSRFSGSGSGTDFTLTISSLQPEDFATYYCQQGYIITDIDNVFGTGTKVTVLGGGGGSQVQLQESGPGLVKPSETLSLTCKVSGFSFSNSYWICWIRQPPGKGLEWIGCTFVGSSDSTYYANWAKGRVTISVDSSKNQFSLKLSSVTAADTAVYYCARHPSDAVYGYANNLWGQGTLVTVSSGGGGSGGGGSGGGGSGGGGSIQMTQSPSSLSASVGDRVTITCQASQSINNVLAWYQQKPGKAPKLLIYRASTLASGVPSRFSGSGSGTDFTLTISSLQPEDFATYYCQSSYGNYGDFGTGTKVTVLGGGGGSQVQLQESGPGLVKPSETLSLTCKVSGFSFSSGYDMCWVRQPPGKGLEWIACVVAGSVDITYYASWAKGRVTISVDSSKNQFSLKLSSVTAADTAVYFCARKDAYSDAFNLWGQGTLVTVSS
notes: scDb; also called 38-02-A04 sc01 scDb-i/33-03-G02 sc02 IF scDb-o

IC50 (ng/ml), NF-AT potency assay, +HSA (human PDL1 on cells): 16.2 ng/mL
rel. IC50 (avelumab/test), +HSA (human PDL1 on cells): 1.45 fold
Kd (human serum albumin): 1 nM
koff (human serum albumin): 0.0003 s⁻¹
kon (human serum albumin): 290000 M⁻¹ s⁻¹
IC50 (ng/ml) (EC50 in Table 16C), NFkB reporter, HCC827 + IFNg, 24 h, +HSA [2]: 4.42 ng/mL
rel. IC50 (PRO1186/test), 24 h [2]: 1.51 fold
Area under the curve (calculated using PRO885 normalized data), first line (6 h by the order of the upper part) [3]: 196
Area under the curve (calculated using PRO885 normalized data), second line (24 h by the order of the upper part) [3]: 180
EC50 [ng/ml], NF-kB reporter, HCC827 + IFNg, +HSA, 6 h [3]: 9.8 ng/mL
IC10/EC90 ratio, first line (6 h by the order of the upper part) [3]: 72.4
IC10/EC90 ratio, second line (24 h by the order of the upper part) [3]: 1240
Maximum NF-kB activation (rel. to PRO1186) [%], first line (6 h by the order of the upper part) [3]: 110%
Maximum NF-kB activation (rel. to PRO1186) [%], second line (24 h by the order of the upper part) [3]: 98.6%
rel. Area under the curve (AUCsample/AUCPRO1186), first line (6 h by the order of the upper part) [3]: 1.03 fold
rel. Area under the curve (AUCsample/AUCPRO1186), second line (24 h by the order of the upper part) [3]: 0.87 fold
rel. EC50 (EC50, PRO1186/EC50, sample), NF-kB reporter, 6 h [3]: 1.31 fold
rel. EC50 (EC50, PRO1186/EC50, sample), NF-kB reporter, 24 h [3]: 1.51 fold
rel. IC10/EC90 (ratio of sample/ratio of PRO1186), first line (6 h by the order of the upper part) [3]: 0.22 fold
rel. IC10/EC90 (ratio of sample/ratio of PRO1186), second line (24 h by the order of the upper part) [3]: 3.94 fold
Kd (Fc tagged human CD137): 1.5 nM
koff (Fc tagged human CD137): 0.00071 s⁻¹
kon (Fc tagged human CD137): 460000 M⁻¹ s⁻¹
Kd (Fc tagged human PDL1): 0.0045 nM
IC50 (biotinylated human PDL1 [4]): 2.42 ng/mL
rel. IC50 (IC50 avelumab/IC50 test) (biotinylated human PDL1 [4]): 1.15 fold
IC50 (biotinylated human PDL1 [5]): 1.92 ng/mL
rel. IC50 (IC50 avelumab/IC50 test) (biotinylated human PDL1 [5]): 0.73 fold
B2: PRO1430 (other)
chain: DIQMTQSPSSLSASVGDRVTITCQASQSIGTYLAWYQQKPGKAPKLLIYRAFILASGVPSRFSGSGSGTDFTLTISSLQPEDFATYYCQSNFYSDSTTIGPNAFGTGTKVTVLGGGGGSEVQLVESGGGLVQPGGSLRLSCAASGFSFSNSYWICWVRQAPGKCLEWIGCTFVGSSDSTYYANWAKGRFTISRDNSKNTVYLQMNSLRAEDTAVYYCARHPSDAVYGYANNLWGQGTLVTVSSGGGGSGGGGSGGGGSGGGGSIQMTQSPSSLSASVGDRVTITCQASQSINNVLAWYQQKPGKAPKLLIYRASTLASGVPSRFSGSGSGTDFTLTISSLQPEDFATYYCQSSYGNYGDFGCGTKVTVLGGGGGSQVQLQESGPGLVKPSETLSLTCKVSGFSFNSDYWIYWIRQPPGKGLEWIGSIYGGSSGNTQYASWAQGRVTISVDSSKNQFSLKLSSVTAADTAVYYCARGYVDYGGATDLWGQGTLVTVSSGGGGSGGGGSIQMTQSPSSLSASVGDRVTITCQSSESVYSNNQLSWYQQKPGQPPKLLIYDASDLASGVPSRFSGSGSGTDFTLTISSLQPEDFATYYCAGGFSSSSDTAFGGGTKLTVLGGGGGSGGGGSGGGGSGGGGSEVQLVESGGGLVQPGGSLRLSCAASGFSLSSNAMGWVRQAPGKGLEYIGIISVGGFTYYASWAKGRFTISRDNSKNTVYLQMNSLRAEDTATYFCARDRHGGDSSGAFYLWGQGTLVTVSS
notes: trispecific scDb-scFv; also called 38-02-A04 sc13 scDb-i/37-20-B03 sc01 scDb-o/19-01-H04 sc03 scFv
